{"source": "IntAct's records for PubMed 28065597", "parents": {"B1": {"name": "Receptor-type tyrosine-protein phosphatase R (Homo sapiens), Q15256 (parent)", "chain": "MRRAVCFPALCLLLNLHAAGCFSGNNDHFLAINQKKSGKPVFIYKHSQDIEKSLDIAPQKIYRHSYHSSSEAQVSKRHQIVNSAFPRPAYDPSLNLLAMDGQDLEVENLPIPAANVIVVTLQMDVNKLNITLLRIFRQGVAAALGLLPQQVHINRLIGKKNSIELFVSPINRKTGISDALPSEEVLRSLNINVLHQSLSQFGITEVSPEKNVLQGQHEADKIWSKEGFYAVVIFLSIFVIIVTCLMILYRLKERFQLSLRQDKEKNQEIHLSPITLQPALSEAKTVHSMVQPEQAPKVLNVVVDPQGRGAPEIKATTATSVCPSPFKMKPIGLQERRGSNVSLTLDMSSLGNIEPFVSIPTPREKVAMEYLQSASRILTRSQLRDVVASSHLLQSEFMEIPMNFVDPKEIDIPRHGTKNRYKTILPNPLSRVCLRPKNVTDSLSTYINANYIRGYSGKEKAFIATQGPMINTVDDFWQMVWQEDSPVIVMITKLKEKNEKCVLYWPEKRGIYGKVEVLVISVNECDNYTIRNLVLKQGSHTQHVKHYWYTSWPDHKTPDSAQPLLQLMLDVEEDRLASQGRGPVVVHCSAGIGRTGCFIATSIGCQQLKEEGVVDALSIVCQLRMDRGGMVQTSEQYEFVHHALCLYESRLSAETVQ"}, "B2": {"name": "Tyrosine-protein phosphatase non-receptor type 7 (Homo sapiens), P35236 (parent)", "chain": "MVQAHGGRSRAQPLTLSLGAAMTQPPPEKTPAKKHVRLQERRGSNVALMLDVRSLGAVEPICSVNTPREVTLHFLRTAGHPLTRWALQRQPPSPKQLEEEFLKIPSNFVSPEDLDIPGHASKDRYKTILPNPQSRVCLGRAQSQEDGDYINANYIRGYDGKEKVYIATQGPMPNTVSDFWEMVWQEEVSLIVMLTQLREGKEKCVHYWPTEEETYGPFQIRIQDMKECPEYTVRQLTIQYQEERRSVKHILFSAWPDHQTPESAGPLLRLVAEVEESPETAAHPGPIVVHCSAGIGRTGCFIATRIGCQQLKARGEVDILGIVCQLRLDRGGMIQTAEQYQFLHHTLALYAGQLPEEPSP"}, "B3": {"name": "Macrophage-stimulating protein receptor (Mus musculus), Q62190 (parent)", "chain": "MGLPLPLLQSSLLLMLLLRLSAASTNLNWQCPRIPYAASRDFSVKYVVPSFSAGGRVQATAAYEDSTNSAVFVATRNHLHVLGPDLQFIENLTTGPIGNPGCQTCASCGPGPHGPPKDTDTLVLVMEPGLPALVSCGSTLQGRCFLHELEPRGKALHLAAPACLFSANNNKPEACTDCVASPLGTRVTVVEQGHASYFYVASSLDPELAASFSPRSVSIRRLKSDTSGFQPGFPSLSVLPKYLASYLIKYVYSFHSGDFVYFLTVQPISVTSPPSALHTRLVRLNAVEPEIGDYRELVLDCHFAPKRRRRGAPEGTQPYPVLQAAHSAPVDAKLAVELSISEGQEVLFGVFVTVKDGGSGMGPNSVVCAFPIYHLNILIEEGVEYCCHSSNSSSLLSRGLDFFQTPSFCPNPPGGEASGPSSRCHYFPLMVHASFTRVDLFNGLLGSVKVTALHVTRLGNVTVAHMGTVDGRVLQVEIARSLNYLLYVSNFSLGSSGQPVHRDVSRLGNDLLFASGDQVFKVPIQGPGCRHFLTCWRCLRAQRFMGCGWCGDRCDRQKECPGSWQQDHCPPEISEFYPHSGPLRGTTRLTLCGSNFYLRPDDVVPEGTHQITVGQSPCRLLPKDSSSPRPGSLKEFIQELECELEPLVTQAVGTTNISLVITNMPAGKHFRVEGISVQEGFSFVEPVLTSIKPDFGPRAGGTYLTLEGQSLSVGTSRAVLVNGTQCRLEQVNEEQILCVTPPGAGTARVPLHLQIGGAEVPGSWTFHYKEDPIVLDISPKCGYSGSHIMIHGQHLTSAWHFTLSFHDGQSTVESRCAGQFVEQQQRRCRLPEYVVRNPQGWATGNLSVWGDGAAGFTLPGFRFLPPPSPLRAGLVELKPEEHSVKVEYVGLGAVADCVTVNMTVGGEVCQHELRGDVVICPLPPSLQLGKDGVPLQVCVDGGCHILSQVVRSSPGRASQRILLIALLVLILLVAVLAVALIFNSRRRKKQLGAHSLSPTTLSDINDTASGAPNHEESSESRDGTSVPLLRTESIRLQDLDRMLLAEVKDVLIPHEQVVIHTDQVIGKGHFGVVYHGEYTDGAQNQTHCAIKSLSRITEVQEVEAFLREGLLMRGLHHPNILALIGIMLPPEGLPRVLLPYMRHGDLLHFIRSPQRNPTVKDLVSFGLQVACGMEYLAEQKFVHRDLAARNCMLDESFTVKVADFGLARGVLDKEYYSVRQHRHARLPVKWMALESLQTYRFTTKSDVWSFGVLLWELLTRGAPPYPHIDPFDLSHFLAQGRRLPQPEYCPDSLYHVMLRCWEADPAARPTFRALVLEVKQVVASLLGDHYVQLTAAYVNVGPRAVDDGSVPPEQVQPSPQHCRSTSKPRPLSEPPLPT", "partner": "B1 chain"}, "B4": {"name": "Receptor tyrosine-protein kinase erbB-4 (Homo sapiens), Q15303 (parent)", "chain": "MKPATGLWVWVSLLVAAGTVQPSDSQSVCAGTENKLSSLSDLEQQYRALRKYYENCEVVMGNLEITSIEHNRDLSFLRSVREVTGYVLVALNQFRYLPLENLRIIRGTKLYEDRYALAIFLNYRKDGNFGLQELGLKNLTEILNGGVYVDQNKFLCYADTIHWQDIVRNPWPSNLTLVSTNGSSGCGRCHKSCTGRCWGPTENHCQTLTRTVCAEQCDGRCYGPYVSDCCHRECAGGCSGPKDTDCFACMNFNDSGACVTQCPQTFVYNPTTFQLEHNFNAKYTYGAFCVKKCPHNFVVDSSSCVRACPSSKMEVEENGIKMCKPCTDICPKACDGIGTGSLMSAQTVDSSNIDKFINCTKINGNLIFLVTGIHGDPYNAIEAIDPEKLNVFRTVREITGFLNIQSWPPNMTDFSVFSNLVTIGGRVLYSGLSLLILKQQGITSLQFQSLKEISAGNIYITDNSNLCYYHTINWTTLFSTINQRIVIRDNRKAENCTAEGMVCNHLCSSDGCWGPGPDQCLSCRRFSRGRICIESCNLYDGEFREFENGSICVECDPQCEKMEDGLLTCHGPGPDNCTKCSHFKDGPNCVEKCPDGLQGANSFIFKYADPDRECHPCHPNCTQGCNGPTSHDCIYYPWTGHSTLPQHARTPLIAAGVIGGLFILVIVGLTFAVYVRRKSIKKKRALRRFLETELVEPLTPSGTAPNQAQLRILKETELKRVKVLGSGAFGTVYKGIWVPEGETVKIPVAIKILNETTGPKANVEFMDEALIMASMDHPHLVRLLGVCLSPTIQLVTQLMPHGCLLEYVHEHKDNIGSQLLLNWCVQIAKGMMYLEERRLVHRDLAARNVLVKSPNHVKITDFGLARLLEGDEKEYNADGGKMPIKWMALECIHYRKFTHQSDVWSYGVTIWELMTFGGKPYDGIPTREIPDLLEKGERLPQPPICTIDVYMVMVKCWMIDADSRPKFKELAAEFSRMARDPQRYLVIQGDDRMKLPSPNDSKFFQNLLDEEDLEDMMDAEEYLVPQAFNIPPPIYTSRARIDSNRSEIGHSPPPAYTPMSGNQFVYRDGGFAAEQGVSVPYRAPTSTIPEAPVAQGATAEIFDDSCCNGTLRKPVAPHVQEDSSTQRYSADPTVFAPERSPRGELDEEGYMTPMRDKPKQEYLNPVEENPFVSRRKNGDLQALDNPEYHNASNGPPKAEDEYVNEPLYLNTFANTLGKAEYLKNNILSMPEKAKKAFDNPDYWNHSLPPRSTLQHPDYLQEYSTKYFYKQNGRIRPIVAENPEYLSEFSLKPGTVLPPPPYRHRNTVV", "partner": "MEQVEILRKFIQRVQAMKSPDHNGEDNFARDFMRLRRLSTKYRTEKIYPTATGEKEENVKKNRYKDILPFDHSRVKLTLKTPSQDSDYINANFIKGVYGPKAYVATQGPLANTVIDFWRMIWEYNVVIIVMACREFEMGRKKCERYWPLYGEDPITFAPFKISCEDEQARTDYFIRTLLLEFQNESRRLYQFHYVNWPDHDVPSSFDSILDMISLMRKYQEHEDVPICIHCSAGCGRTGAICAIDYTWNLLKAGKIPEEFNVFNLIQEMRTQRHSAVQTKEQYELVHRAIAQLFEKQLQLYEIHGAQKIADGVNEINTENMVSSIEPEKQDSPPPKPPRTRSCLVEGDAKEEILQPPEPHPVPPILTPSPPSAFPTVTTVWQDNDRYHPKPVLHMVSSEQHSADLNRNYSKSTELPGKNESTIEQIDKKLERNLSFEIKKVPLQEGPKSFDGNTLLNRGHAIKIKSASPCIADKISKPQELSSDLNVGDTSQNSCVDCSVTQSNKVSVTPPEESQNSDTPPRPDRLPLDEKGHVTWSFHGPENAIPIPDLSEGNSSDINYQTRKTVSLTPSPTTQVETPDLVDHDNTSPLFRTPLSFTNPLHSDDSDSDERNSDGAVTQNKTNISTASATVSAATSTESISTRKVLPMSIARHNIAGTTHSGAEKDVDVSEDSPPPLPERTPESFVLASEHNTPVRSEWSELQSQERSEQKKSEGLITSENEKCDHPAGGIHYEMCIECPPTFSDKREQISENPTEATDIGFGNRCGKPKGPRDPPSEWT"}, "B5": {"name": "Receptor tyrosine-protein kinase erbB-4 (Homo sapiens), Q15303 (parent)", "chain": "B4 chain"}, "B6": {"name": "Receptor tyrosine-protein kinase erbB-4 (Homo sapiens), Q15303 (parent)", "chain": "B4 chain", "partner": "B2 chain"}, "B7": {"name": "Receptor tyrosine-protein kinase erbB-4 (Homo sapiens), Q15303 (parent)", "chain": "B4 chain", "partner": "B1 chain"}}}
{"variants_of": "B1", "settings": "with ret_human RET"}
{"variant": "Y249F", "effect of a mutation on the interaction": "increasing interaction"}
{"variant": "C588S", "effect of a mutation on the interaction": "disrupting interaction"}
{"variants_of": "B1", "settings": "with ron_mouse Mst1r, Q62190"}
{"variant": "Y249F", "effect of a mutation on the interaction": "increasing interaction"}
{"variant": "C588S", "effect of a mutation on the interaction": "disrupting interaction"}
{"variants_of": "B1", "settings": "with erbb4_human ERBB4, Q15303"}
{"variant": "C588S", "effect of a mutation on the interaction": "with no effect"}
{"variants_of": "B1", "settings": "with ret_human RET", "remark": "another data set of the same source"}
{"variant": "C588S", "effect of a mutation on the interaction": "with no effect"}
{"variants_of": "B1", "settings": "with igf1r_human IGF1R"}
{"variant": "C588S", "effect of a mutation on the interaction": "decreasing interaction"}
{"variants_of": "B1", "settings": "with ntrk1_human NTRK1, P04629"}
{"variant": "C588S", "effect of a mutation on the interaction": "with no effect"}
{"variants_of": "B1", "settings": "with tie2_human TEK"}
{"variant": "C588S", "effect of a mutation on the interaction": "decreasing interaction"}
{"variants_of": "B1", "settings": "with ron_mouse Mst1r"}
{"variant": "C588S", "effect of a mutation on the interaction": "increasing interaction"}
{"variants_of": "B1", "settings": "with fgfr2_human FGFR2, P21802"}
{"variant": "C588S", "effect of a mutation on the interaction": "disrupting interaction"}
{"variants_of": "B1", "settings": "with fgfr4_human FGFR4, P22455"}
{"variant": "C588S", "effect of a mutation on the interaction": "decreasing interaction"}
{"variants_of": "B1", "settings": "with vgfr2_human KDR"}
{"variant": "C588S", "effect of a mutation on the interaction": "with no effect"}
{"variants_of": "B1", "settings": "with igf1r_human IGF1R", "remark": "another data set of the same source"}
{"variant": "C588S", "effect of a mutation on the interaction": "with no effect"}
{"variants_of": "B2", "settings": "with erbb4_human ERBB4, Q15303"}
{"variant": "C291S", "effect of a mutation on the interaction": "with no effect"}
{"variant": "D257A;C291S", "effect of a mutation on the interaction": "with no effect"}
{"variants_of": "B2", "settings": "with igf1r_human IGF1R"}
{"variant": "C291S", "effect of a mutation on the interaction": "with no effect"}
{"variant": "D257A;C291S", "effect of a mutation on the interaction": "with no effect"}
{"variants_of": "B2", "settings": "with igf1r_human IGF1R", "remark": "another data set of the same source"}
{"variant": "C291S", "effect of a mutation on the interaction": "disrupting interaction"}
{"variant": "D257A;C291S", "effect of a mutation on the interaction": "increasing interaction"}
{"variants_of": "B3", "settings": "with ptprr_human PTPRR, Q15256"}
{"variant": "K1091A", "effect of a mutation on the interaction": "decreasing interaction"}
{"variants_of": "B4", "settings": "with ptn12_human PTPN12, Q05209"}
{"variant": "D843N", "effect of a mutation on the interaction": "with no effect"}
{"variants_of": "B4", "settings": "with ptn12_human PTPN12, Q05209", "remark": "another data set of the same source"}
{"variant": "D843N", "effect of a mutation on the interaction": "increasing interaction"}
{"variants_of": "B5", "settings": "with ptn6_human PTPN6, P29350"}
{"variant": "D843N", "effect of a mutation on the interaction": "with no effect"}
{"variants_of": "B6", "settings": "with ptn7_human PTPN7, P35236"}
{"variant": "D843N", "effect of a mutation on the interaction": "increasing interaction"}
{"variants_of": "B7", "settings": "with ptprr_human PTPRR, Q15256"}
{"variant": "D843N", "effect of a mutation on the interaction": "with no effect"}
